Results published in patent publication US20240287161A1 (NATIONAL UNIVERSITY CORPORATION TOTTORI UNIVERSITY, published 2024).

Assays:
[1] = target: T1, HCoV-OC43 trimeric S protein (amino acids 12-1299) with T4 foldon, histidine tag and strep-tag (HCoV-OC43, UniProt P36334 12-1291); experiment: ELISA on coated S-trimeric antigen, anti-human IgG-HRP [Human IgG1, NT-108]
T1 chain: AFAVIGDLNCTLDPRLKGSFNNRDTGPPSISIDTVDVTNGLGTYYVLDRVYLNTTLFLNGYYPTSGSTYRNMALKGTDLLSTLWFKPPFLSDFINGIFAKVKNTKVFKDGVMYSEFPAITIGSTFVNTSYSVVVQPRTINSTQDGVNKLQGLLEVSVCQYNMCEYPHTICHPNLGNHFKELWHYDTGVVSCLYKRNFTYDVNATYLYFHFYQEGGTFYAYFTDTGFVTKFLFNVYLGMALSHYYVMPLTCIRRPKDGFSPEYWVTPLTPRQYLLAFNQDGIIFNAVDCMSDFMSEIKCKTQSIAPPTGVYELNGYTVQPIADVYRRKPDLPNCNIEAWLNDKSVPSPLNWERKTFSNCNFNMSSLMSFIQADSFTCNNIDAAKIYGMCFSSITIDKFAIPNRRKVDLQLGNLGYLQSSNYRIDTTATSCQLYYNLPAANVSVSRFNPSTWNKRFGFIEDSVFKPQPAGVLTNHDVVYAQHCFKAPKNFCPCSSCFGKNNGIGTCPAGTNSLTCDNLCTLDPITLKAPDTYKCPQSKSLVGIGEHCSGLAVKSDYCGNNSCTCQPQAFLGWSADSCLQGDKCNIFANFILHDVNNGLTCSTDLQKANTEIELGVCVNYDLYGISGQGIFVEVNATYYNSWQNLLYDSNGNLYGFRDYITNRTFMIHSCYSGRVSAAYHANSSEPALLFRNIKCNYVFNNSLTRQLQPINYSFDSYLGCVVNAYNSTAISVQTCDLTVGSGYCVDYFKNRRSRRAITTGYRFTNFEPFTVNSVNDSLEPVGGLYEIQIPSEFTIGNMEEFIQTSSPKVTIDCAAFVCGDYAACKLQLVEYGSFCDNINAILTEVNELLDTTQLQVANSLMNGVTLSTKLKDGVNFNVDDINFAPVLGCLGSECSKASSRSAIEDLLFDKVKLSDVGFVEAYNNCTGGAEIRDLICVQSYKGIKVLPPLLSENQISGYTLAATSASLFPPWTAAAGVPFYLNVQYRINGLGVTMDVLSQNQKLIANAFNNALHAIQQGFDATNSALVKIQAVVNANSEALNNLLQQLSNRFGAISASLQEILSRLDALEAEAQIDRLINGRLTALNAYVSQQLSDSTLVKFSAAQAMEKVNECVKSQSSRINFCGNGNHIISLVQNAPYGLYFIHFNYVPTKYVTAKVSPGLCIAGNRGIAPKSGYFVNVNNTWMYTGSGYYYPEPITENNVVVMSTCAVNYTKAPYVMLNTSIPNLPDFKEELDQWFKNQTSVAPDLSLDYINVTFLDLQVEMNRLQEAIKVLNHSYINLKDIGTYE

[2] = target: T2, HCoV-229E trimeric S protein (amino acids 12-1109) with T4 foldon, histidine tag and strep-tag (HCoV-229E, UniProt P15423 12-1112); experiment: as above
T2 chain: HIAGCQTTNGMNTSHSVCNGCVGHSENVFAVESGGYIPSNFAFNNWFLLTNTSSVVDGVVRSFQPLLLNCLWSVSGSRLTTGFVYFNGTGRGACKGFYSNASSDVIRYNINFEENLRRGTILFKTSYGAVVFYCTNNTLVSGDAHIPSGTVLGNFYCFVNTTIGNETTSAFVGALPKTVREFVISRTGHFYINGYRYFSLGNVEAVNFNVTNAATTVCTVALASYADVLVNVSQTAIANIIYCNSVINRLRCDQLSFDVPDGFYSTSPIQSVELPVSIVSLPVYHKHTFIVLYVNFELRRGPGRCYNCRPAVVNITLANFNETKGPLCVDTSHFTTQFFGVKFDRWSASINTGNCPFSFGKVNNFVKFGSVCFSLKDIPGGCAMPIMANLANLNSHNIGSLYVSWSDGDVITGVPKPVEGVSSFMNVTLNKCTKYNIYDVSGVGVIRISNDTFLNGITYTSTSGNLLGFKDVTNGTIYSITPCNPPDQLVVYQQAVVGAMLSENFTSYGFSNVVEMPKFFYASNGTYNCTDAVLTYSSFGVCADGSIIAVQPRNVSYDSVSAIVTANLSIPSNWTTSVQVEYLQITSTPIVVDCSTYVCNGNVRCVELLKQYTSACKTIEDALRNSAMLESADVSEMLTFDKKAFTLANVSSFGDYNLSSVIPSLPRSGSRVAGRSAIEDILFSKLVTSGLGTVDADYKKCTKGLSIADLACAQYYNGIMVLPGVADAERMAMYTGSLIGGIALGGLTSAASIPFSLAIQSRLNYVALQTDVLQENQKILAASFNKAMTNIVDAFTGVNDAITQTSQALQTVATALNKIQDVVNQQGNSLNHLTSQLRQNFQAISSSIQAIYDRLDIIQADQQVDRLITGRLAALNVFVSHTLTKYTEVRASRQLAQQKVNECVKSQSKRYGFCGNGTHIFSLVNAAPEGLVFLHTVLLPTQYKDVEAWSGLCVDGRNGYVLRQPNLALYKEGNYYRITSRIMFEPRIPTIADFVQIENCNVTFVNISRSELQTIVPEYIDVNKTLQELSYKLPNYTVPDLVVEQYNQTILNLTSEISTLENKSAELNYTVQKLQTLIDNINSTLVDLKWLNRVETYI

B1: NT-108 (recombinant human IgG1/kappa antibody) (antibody, V domains shown)
VH: EVQLQQSGPGLVKPSQTLSLTCSISGDSVSSNSAAWNWIRQSPSRGLEWLGRTYYRSKWYNDYAGTVKSRIAINPDTSKNQFSLHLNSVTPEDTAVYFCARVISVAGYAFDIWGQGTMVTVSS
VL: EIVLTQSPGTLSLSPGERATLSCRASQSVSSTFLAWYQQKPGQAPRLLIYGASYMATGIPDRFSGSGSGTDFTLTISRLEPEDFAVYYCQQYGSSLTFGGGTKLEIK
B1: no binding (tested: 1000 ng/ml) [1]; no binding (tested: 1000 ng/ml) [2].
